Patent US20260176336A1

Target: human LTBR endogenously expressed on cells (HepG2, A549, A375, HCC1187, RPMI-7951, primary human breast CAFs) (human) (UniProt P36941)
Assay: cell-based or functional assay

Chain of human LTBR endogenously expressed on cells (HepG2, A549, A375, HCC1187, RPMI-7951, primary human breast CAFs) (human) (P36941 31-435): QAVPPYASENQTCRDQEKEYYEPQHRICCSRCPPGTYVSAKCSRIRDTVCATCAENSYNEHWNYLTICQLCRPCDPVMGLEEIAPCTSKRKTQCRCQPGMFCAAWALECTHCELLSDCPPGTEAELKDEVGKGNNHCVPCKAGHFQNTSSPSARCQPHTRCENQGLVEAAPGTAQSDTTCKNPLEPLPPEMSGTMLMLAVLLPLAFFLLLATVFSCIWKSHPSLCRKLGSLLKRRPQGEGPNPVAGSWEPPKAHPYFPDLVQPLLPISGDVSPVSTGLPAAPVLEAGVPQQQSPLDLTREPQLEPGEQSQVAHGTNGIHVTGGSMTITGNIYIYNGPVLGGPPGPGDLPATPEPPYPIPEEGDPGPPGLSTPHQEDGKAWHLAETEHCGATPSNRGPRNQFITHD

B1: CBE-11 (antibody, from another filing, human IgG1, V domains shown)
VH: EVQLVESGGGLVKPGGSLRLSCAASGFTFSDYYMYWFRQAPGKGLEWVATISDGGSYTYYPDSVKGRFTISRDNAKNSLYLQMSSLRAEDTAVYYCAREENGNFYYFDYWGQGTTVTVSS
VL: DIQMTQSPSSLSASVGDRVTITCKAGQDIKSYLSWYQQKPGKAPKLLIYYATRLADGVPSRFSGSGSGTDYTLTISSLQPEDFATYYCLQHGESPWTFGGGTKLEIKR
B1 showed a CCL19 upregulation, HCC1187:CAF Co-culture EC50 of 0.26 nM, a CCL19 upregulation, HCC1187 Monoculture EC50 of 0.23 nM and an HCC1187 monoculture assay CCL19 read-out EC50 of 0.239 nM. The HCC-1187:RPMI7951 (cis-activation) co-culture assay CCL5 read-out EC50 was 0.13 nM, the HCC-1187:RPMI7951 (trans-activation) co-culture assay, CCL19 Read-out EC50 was 0.084 nM and the HepG2 Reporter assay, HepG2:FAP-CHO-K1 Co-culture EC50 was 0.046 nM. For the same binder, the HepG2 Reporter assay, HepG2 Monoculture EC50 was 0.033 nM, the ICAM1 upregulation in CAFs monoculture assay EC50 was 0.044 nM and the chemokine (CCL5) induction in RPMI-7951 EC50 was 0.38 nM.
